To fix the notation:
B1: Zinc finger protein ZIC 2, residues 250 to 295; numbered along this chain, O95409 (parent)
chain: QCIKQELICKWIDPEQLSNPKKSCNKTFSTMHELVTHVSVEHVGGP

± gives the uncertainty stated by the source.

The data set covers variants of B1. Kind of data set: abundance fitness (aPCA) (normalised: wild type 0, dead -1); higher = more abundant; growth selection in yeast, the domain comes from the species named. The settings on record: Homo sapiens.
As to I3Y, the abundance fitness is -0.151 ± 0.14.

As for I3D, the abundance fitness was -0.541 ± 0.12.

For the variant I3H, the abundance fitness was -0.518 ± 0.12.

Take I3N: the abundance fitness is -0.602 ± 0.12.

Consider I3P, for which the abundance fitness is -0.586 ± 0.11.

Regarding I12E, the abundance fitness was 0.111 ± 0.097.

Turning to I12T, the abundance fitness was 0.041 ± 0.097.

As to I12M, the abundance fitness is -0.077 ± 0.11.

On to I12Y, for which the abundance fitness is -0.175 ± 0.14.

In the case of I12H, the abundance fitness stood at 0.098 ± 0.14.

On to I12N, for which the abundance fitness is -0.417 ± 0.16.

With I12K, the abundance fitness is -0.085 ± 0.13.

For the variant V38A, the abundance fitness is -0.161 ± 0.093.

Turning to V38G, the abundance fitness is -0.095 ± 0.084.

Consider V38Q, for which the abundance fitness was 0.43 ± 0.11.

For V38H, the abundance fitness is -0.121 ± 0.11.

As to W11S, the abundance fitness is -0.212 ± 0.089.

For the variant W11P, the abundance fitness is -0.348 ± 0.1.

As to W11A, the abundance fitness was -0.223 ± 0.099.

For the variant W11G, the abundance fitness is -0.089 ± 0.086.

Regarding W11R, the abundance fitness was determined as 0.037 ± 0.085.

In the case of W11H, the abundance fitness was found to be 0.002 ± 0.12.

Consider M31L, for which the abundance fitness was -0.377 ± 0.088.

Turning to M31S, the abundance fitness worked out at 0.321 ± 0.089.

As to M31E, the abundance fitness came out at 0.373 ± 0.089.

For the variant M31C, the abundance fitness was -0.569 ± 0.12.

As for M31N, the abundance fitness came to 0.622 ± 0.11.

In the case of M31Q, the abundance fitness was 0.438 ± 0.095.

Regarding M31D, the abundance fitness turned out to be 0.334 ± 0.098.

Turning to V43W, the abundance fitness was -0.332 ± 0.1.

Regarding V43T, the abundance fitness worked out at 0.108 ± 0.096.

As for V43G, the abundance fitness was 0.247 ± 0.084.

Turning to Q1T, the abundance fitness turned out to be 0.146 ± 0.35.

Q1E: the abundance fitness is -0.077 ± 0.16.

Regarding Q1V, the abundance fitness was -0.349 ± 0.17.

In the case of Q1M, the abundance fitness was -0.131 ± 0.34.

As to Q1H, the abundance fitness is -0.101 ± 0.16.

For K22T, the abundance fitness is -0.015 ± 0.1.

On to K22P, for which the abundance fitness was -0.095 ± 0.1.

Regarding K22N, the abundance fitness is 0.224 ± 0.12.

For the variant K22Q, the abundance fitness was -0.166 ± 0.099.

As for K22F, the abundance fitness is -0.332 ± 0.11.

K22W: the abundance fitness is -0.404 ± 0.096.

For the variant T27L, the abundance fitness is -0.19 ± 0.089.

Turning to T27Q, the abundance fitness was 0.119 ± 0.098.

Consider D13T, for which the abundance fitness is -0.81 ± 0.13.

Turning to F28E, the abundance fitness is -0.547 ± 0.1.

Consider F28M, for which the abundance fitness is -0.683 ± 0.11.

For the variant F28H, the abundance fitness is -1.04 ± 0.15.

With F28Y, the abundance fitness was -0.724 ± 0.13.

For C9Y, the abundance fitness was -0.829 ± 0.098.

On to S23A, for which the abundance fitness was determined as 0.316 ± 0.09.

On to S23F, for which the abundance fitness was found to be 0.14 ± 0.13.

Take S23R: the abundance fitness worked out at 0.566 ± 0.084.

For the variant E6C, the abundance fitness is -0.632 ± 0.22.

On to E6V, for which the abundance fitness is -0.778 ± 0.18.

In the case of E6G, the abundance fitness was -0.198 ± 0.14.

E6R: the abundance fitness was -0.312 ± 0.13.

N19F: the abundance fitness is -0.166 ± 0.15.

For the variant N19A, the abundance fitness is -0.131 ± 0.091.

On to N19R, for which the abundance fitness was -0.053 ± 0.085.

With L34S, the abundance fitness is -0.617 ± 0.094.

With L34D, the abundance fitness was -0.828 ± 0.13.

On to L34P, for which the abundance fitness is -0.371 ± 0.11.

In the case of K21Q, the abundance fitness turned out to be 0.126 ± 0.12.

For the variant K21L, the abundance fitness was -0.091 ± 0.089.

As for K21H, the abundance fitness was determined as 0.016 ± 0.11.

On to K21V, for which the abundance fitness was -0.116 ± 0.089.

K21A: the abundance fitness is -0.008 ± 0.09.

On to K21I, for which the abundance fitness was -0.153 ± 0.099.

Consider L7D, for which the abundance fitness is -0.375 ± 0.11.

Take L7T: the abundance fitness worked out at 0.001 ± 0.093.

As for L7C, the abundance fitness was -0.196 ± 0.093.

For the variant L7A, the abundance fitness amounted to 0.097 ± 0.09.

As for L7R, the abundance fitness is 0.044 ± 0.084.

Take L7P: the abundance fitness is 0.194 ± 0.096.

As for G45I, the abundance fitness amounted to 0.133 ± 0.12.

Regarding G45L, the abundance fitness was -0.149 ± 0.092.

In the case of G45V, the abundance fitness was -0.242 ± 0.09.

As to G45C, the abundance fitness was -0.017 ± 0.1.

As to G45M, the abundance fitness was -0.382 ± 0.12.

Regarding G45T, the abundance fitness is -0.093 ± 0.11.

G45F: the abundance fitness was -0.202 ± 0.1.

In the case of G45R, the abundance fitness was -0.114 ± 0.087.

With G45K, the abundance fitness is -0.134 ± 0.12.

H32R: the abundance fitness came to 0.084 ± 0.086.

For the variant H32D, the abundance fitness worked out at 0.092 ± 0.098.

Take H32V: the abundance fitness is -0.196 ± 0.087.

In the case of H32W, the abundance fitness was found to be 0.163 ± 0.094.

In the case of E33N, the abundance fitness was -0.726 ± 0.12.

Consider E33K, for which the abundance fitness was -0.615 ± 0.12.

E33L: the abundance fitness is -0.735 ± 0.095.

In the case of E33D, the abundance fitness was 0.086 ± 0.1.

In the case of G44W, the abundance fitness is -0.082 ± 0.098.

As to G44Y, the abundance fitness was -0.357 ± 0.13.

In the case of G44I, the abundance fitness was -0.363 ± 0.11.

Turning to G44Q, the abundance fitness was -0.267 ± 0.13.

Consider G44P, for which the abundance fitness was -0.217 ± 0.1.

For the variant G44C, the abundance fitness was -0.062 ± 0.096.

For S18F, the abundance fitness was -0.15 ± 0.1.

For the variant S18R, the abundance fitness was -0.198 ± 0.085.

On to S18K, for which the abundance fitness worked out at 0.282 ± 0.11.

For S18D, the abundance fitness was -0.125 ± 0.1.

In the case of T30H, the abundance fitness was -0.596 ± 0.14.

On to T30F, for which the abundance fitness was -0.254 ± 0.14.

Consider T30D, for which the abundance fitness is -0.072 ± 0.12.

For the variant T30I, the abundance fitness was -0.315 ± 0.16.

S39N: the abundance fitness was -0.007 ± 0.11.

For the variant S39C, the abundance fitness is -0.016 ± 0.11.

Regarding S39Q, the abundance fitness amounted to 0.296 ± 0.1.

Turning to S39L, the abundance fitness is -0.356 ± 0.091.

With S39R, the abundance fitness worked out at 0.056 ± 0.087.

As to S39W, the abundance fitness was -0.292 ± 0.097.

Regarding H42N, the abundance fitness was -1.25 ± 0.16.

H42D: the abundance fitness is -1.01 ± 0.12.

Regarding H42T, the abundance fitness is -0.89 ± 0.11.

Take E41L: the abundance fitness is -0.487 ± 0.089.

Take E41R: the abundance fitness is -0.377 ± 0.088.

E41S: the abundance fitness amounted to 0.032 ± 0.087.

P20D: the abundance fitness was determined as 0.057 ± 0.12.

Turning to P20V, the abundance fitness is -0.111 ± 0.089.

Turning to P20Q, the abundance fitness was -0.264 ± 0.11.

Take P20K: the abundance fitness is -0.233 ± 0.12.

In the case of P20H, the abundance fitness was -0.883 ± 0.14.

With P20W, the abundance fitness was -0.521 ± 0.096.

L17P: the abundance fitness was determined as 0.101 ± 0.097.

In the case of L17A, the abundance fitness amounted to 0.084 ± 0.092.

With L17H, the abundance fitness is -0.662 ± 0.15.

Take L17V: the abundance fitness amounted to 0.11 ± 0.087.

As for S29D, the abundance fitness is 0.352 ± 0.1.

Consider S29E, for which the abundance fitness was 0.425 ± 0.096.

For P46W, the abundance fitness is -0.709 ± 0.43.

As to P46R, the abundance fitness was -0.231 ± 0.17.

Consider P46K, for which the abundance fitness turned out to be 0.593 ± 0.26.

For the variant Q5T, the abundance fitness is -0.22 ± 0.089.

Consider Q5S, for which the abundance fitness is -0.24 ± 0.086.

For the variant Q5D, the abundance fitness came to 0.366 ± 0.11.

On to Q5E, for which the abundance fitness is 0.242 ± 0.23.

With H37P, the abundance fitness was -0.787 ± 0.14.

As to H37F, the abundance fitness is -1.1 ± 0.22.

For the variant H37V, the abundance fitness is -0.904 ± 0.11.

In the case of H37S, the abundance fitness was -0.856 ± 0.15.

Consider H37L, for which the abundance fitness is -0.741 ± 0.11.

As to H37T, the abundance fitness was -0.903 ± 0.14.

In the case of H37C, the abundance fitness was -1.5 ± 0.23.

H37M: the abundance fitness was -0.728 ± 0.13.

As to H37K, the abundance fitness was -0.806 ± 0.15.

On to I8L, for which the abundance fitness is -0.056 ± 0.089.

Take I8M: the abundance fitness is 0.031 ± 0.1.

Turning to I8R, the abundance fitness was 0.241 ± 0.085.

I8H: the abundance fitness was 0.033 ± 0.14.

I8S: the abundance fitness was found to be 0.02 ± 0.09.

In the case of I8W, the abundance fitness is -0.31 ± 0.094.

Consider V35P, for which the abundance fitness was -0.848 ± 0.11.

Turning to V35W, the abundance fitness worked out at 0.2 ± 0.089.

For V35F, the abundance fitness amounted to 0.054 ± 0.11.

Take V35K: the abundance fitness was 0.446 ± 0.097.

As for V35N, the abundance fitness was 0.761 ± 0.1.

Turning to V35Q, the abundance fitness was determined as 0.543 ± 0.099.

Take V35Y: the abundance fitness came out at 0.296 ± 0.1.

On to E15D, for which the abundance fitness is -0.254 ± 0.11.

On to E15H, for which the abundance fitness is -0.233 ± 0.11.

On to E15A, for which the abundance fitness was determined as 0.077 ± 0.088.

Regarding E15G, the abundance fitness is -0.145 ± 0.085.

On to E15P, for which the abundance fitness is -0.388 ± 0.11.

For K4Y, the abundance fitness was -0.671 ± 0.15.

With K4L, the abundance fitness was -0.184 ± 0.093.
